Data: paper PMC12175530

Columns and labels:
[1] = molecular target: T1, EseE-His6 (Edwardsiella piscicida) (UniProt A0AAU8P1U3); experiment: EMSA; conditions: 20 mM Tris-HCl pH 7.5, 50 mM MgCl2, 5% glycerol, 20 uL, 2 h at 25 C
T1 sequence: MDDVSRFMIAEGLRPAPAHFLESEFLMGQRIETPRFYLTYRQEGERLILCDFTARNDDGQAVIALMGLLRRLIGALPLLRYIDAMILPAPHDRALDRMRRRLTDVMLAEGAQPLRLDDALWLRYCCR

[2] = molecular target: T2, EsrB-His6 (Edwardsiella piscicida) (UniProt A0AAU8P338); experiment: EMSA; conditions: 20 mM Tris-HCl pH 7.5, 50 mM MgCl2, 5% glycerol, 20 uL, 2 h at 25 C
T2 sequence: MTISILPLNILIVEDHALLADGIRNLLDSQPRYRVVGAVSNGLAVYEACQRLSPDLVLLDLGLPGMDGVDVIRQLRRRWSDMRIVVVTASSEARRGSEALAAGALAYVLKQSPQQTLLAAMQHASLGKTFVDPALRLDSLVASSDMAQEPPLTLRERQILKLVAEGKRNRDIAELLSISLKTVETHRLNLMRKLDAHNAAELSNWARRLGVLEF

Which binding [1] does the source give for “GCCCGAACACCCGAGAAAAACCAACGTAACTTCAGGTAATTACCCGATATCTTTCGCGCGGGTTCAGCACCCAGAATGGGCCGGGGAAAAAGAGTTCGTCTCCCGATAACCAAACAGCAAACGTTATGCAGCTTCTCGAAAGTTCGCCCGCTAACGGCGTTCTAGCATCACCTCATCGGTAGTCAATAGGAGGTTTCACT (double strand) [escC -200 to -1]” here?
Its binding is “binds”.

What about the binding [2] of the same sequence?
The binding was “binds”.
